Measurements reported in PMC3438978.

target: derCD23 (monomeric CD23 protein) (human) (UniProt P06734); assay: SPR
Chain of UniProt P06734 (P06734 156-298): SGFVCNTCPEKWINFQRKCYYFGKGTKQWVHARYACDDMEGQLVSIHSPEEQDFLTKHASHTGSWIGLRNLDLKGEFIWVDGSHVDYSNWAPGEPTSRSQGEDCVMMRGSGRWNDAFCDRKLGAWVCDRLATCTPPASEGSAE

Kd [µM]	Substance
2.4	Recombinant human IgE-Fc (composed of domains Cϵ2-Cϵ4) (domain or fragment)

target: Recombinant human IgE-Fc (composed of domains Cϵ2-Cϵ4) (human); assay: SPR

Kd [µM]	Substance
2.3	derCD23 (monomeric CD23 protein) (from UniProt P06734 156-298) (domain or fragment)

target: Recombinant human IgE-Fc (composed of domains Cϵ2-Cϵ4) (human); assay: SPR; remark: another data set of the same source

Substance	Kd [µM]
derCD23 D227A (from UniProt P06734 1-321) (domain or fragment)	30.9
derCD23 D236A (from UniProt P06734 1-321) (domain or fragment)	5.8
derCD23 K276A (from UniProt P06734 1-321) (domain or fragment)	10.9
derCD23 R188A (from UniProt P06734 1-321) (domain or fragment)	25
derCD23 R224A (from UniProt P06734 1-321) (domain or fragment)	26.2

Further lines, results first:

Kd [µM]	Substance
2.3	derCD23 (monomeric CD23 protein) (from UniProt P06734 156-298) (domain or fragment)
4.3	derCD23 D192A (from UniProt P06734 1-321) (domain or fragment)
26.7	derCD23 E257A (from UniProt P06734 1-321) (domain or fragment)
2.5	derCD23 E265A (domain or fragment)
6.6	derCD23 L226A (from UniProt P06734 1-321) (domain or fragment)
15.6	derCD23 Y189A (from UniProt P06734 1-321) (domain or fragment)

target: derCD23 (monomeric CD23 protein) (human) (UniProt P06734); assay: SPR; remark: another data set of the same source

Substance	Kd [µM]
IgE-Fc D347A (domain or fragment)	2.5
IgE-Fc D409A (domain or fragment)	26.3
IgE-Fc E412A (domain or fragment)	24.2
IgE-Fc K380A (domain or fragment)	13.3
IgE-Fc P439A (domain or fragment)	2.5
IgE-Fc Q538A (domain or fragment)	2.4
IgE-Fc R351A (domain or fragment)	2.6

Continued, values first:

Kd [µM]	Substance
3.8	IgE-Fc K352A (domain or fragment)
5	IgE-Fc K435A (domain or fragment)
2.5	IgE-Fc Q535A (domain or fragment)
19.7	IgE-Fc R376A (domain or fragment)
2.3	Recombinant human IgE-Fc (composed of domains Cϵ2-Cϵ4) (domain or fragment)
